This note sets out measurements from US20260152527A1 (SIGHTSTREAM BIOTHERAPEUTICS, published 2026).

Common to all, as to assay: cell-based or functional assay
For test [1], the target named is T1, human recombinant MC1R (CHO-K1 stable cell line, GenScript) (human, UniProt Q01726 1-317).
The target in test [2] is human recombinant MC3R (CHO-K1/Gα15 stable cell line, GenScript) (human, UniProt P41968 1-323).
The target in test [3] is T2, human recombinant MC4R (CHO-K1/Gα15 stable cell line, GenScript) (human, UniProt P32245 1-332).
Test [4] addresses T3, human recombinant MC5R (CHO-K1/Ga15 stable cell line, GenScript) (human, UniProt P33032 1-325).
Test [5] deals with T1, human recombinant MC1R (CHO-K1 stable …). The source holds these as a separate data set.
Test [6] concerns the target T2, human recombinant MC4R (CHO-K1/Gα15 …). This is another data set of the same source.
Test [7] deals with T3, human recombinant MC5R (CHO-K1/Ga15 …). This is another data set of the same source.

Starred links: 1 amine or outer side, 2 acyl side, 3 side chain; linkers in the order of their positions; H or OH if unused. Positions of bridges follow the written chain, without caps; N, C: chain ends. Non-standard residues stand in square brackets, D forms with d. Primed or numbered codes have the meaning given here. *: point of attachment. Hgln = homoglutamine, NC(=O)CCC[C@H](N[*:1])C(=O)[*:2]; Benzoyl(3,5-(OH)2) = O=C(c1cc(O)cc(O)c1)*; Lys(N3) = [N-]=[N+]=NCCCC[C@H](N)C(=O)O; dPhe(4-F) = N[C@H](Cc1ccc(F)cc1)C(=O)O; Acetyl(4-pyridyl) = O=C(Cc1ccncc1)*; R8 = C=CCCCCCC[C@@](C)(N)C(=O)O; PEG8′ = polyethylene glycol-8; S5 = C=CCCC[C@](C)(N)C(=O)O; Nle = CCCC[C@H](N)C(=O)O; Octanoyl = CCCCCCCC(=O)*; Pra = C#CC[C@H](N)C(=O)O Where only a bound is given, the exact number is not on record here.

T1 sequence (Q01726 whole entry): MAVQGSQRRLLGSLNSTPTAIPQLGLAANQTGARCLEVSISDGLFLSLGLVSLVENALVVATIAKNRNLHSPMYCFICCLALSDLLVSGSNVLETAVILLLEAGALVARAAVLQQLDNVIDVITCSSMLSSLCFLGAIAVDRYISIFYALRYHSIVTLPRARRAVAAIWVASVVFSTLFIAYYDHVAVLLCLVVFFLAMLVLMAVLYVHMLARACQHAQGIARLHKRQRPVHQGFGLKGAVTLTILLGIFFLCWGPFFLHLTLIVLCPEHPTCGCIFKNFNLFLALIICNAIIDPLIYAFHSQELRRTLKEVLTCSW
T2 sequence (P32245 whole entry): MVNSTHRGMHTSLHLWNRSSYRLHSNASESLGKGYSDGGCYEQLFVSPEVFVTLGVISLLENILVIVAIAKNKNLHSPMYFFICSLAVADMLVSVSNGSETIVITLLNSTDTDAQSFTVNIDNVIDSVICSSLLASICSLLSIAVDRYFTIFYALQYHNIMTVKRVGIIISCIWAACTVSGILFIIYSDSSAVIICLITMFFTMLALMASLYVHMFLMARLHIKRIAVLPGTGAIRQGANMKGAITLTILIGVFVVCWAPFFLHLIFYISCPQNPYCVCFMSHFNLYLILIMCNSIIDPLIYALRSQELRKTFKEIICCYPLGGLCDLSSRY
T3 sequence (P33032 whole entry): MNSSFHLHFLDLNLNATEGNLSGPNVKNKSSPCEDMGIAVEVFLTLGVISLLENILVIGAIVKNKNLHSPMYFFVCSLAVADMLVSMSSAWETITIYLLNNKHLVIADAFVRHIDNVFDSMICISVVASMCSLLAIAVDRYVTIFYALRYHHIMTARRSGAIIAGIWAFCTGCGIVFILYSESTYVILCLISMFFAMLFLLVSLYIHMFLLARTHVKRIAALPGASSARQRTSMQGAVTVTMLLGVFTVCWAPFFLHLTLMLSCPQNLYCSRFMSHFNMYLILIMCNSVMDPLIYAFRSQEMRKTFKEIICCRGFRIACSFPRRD
Chain of human recombinant MC3R (CHO-K1/Gα15 stable cell line, GenScript) (P41968 whole entry): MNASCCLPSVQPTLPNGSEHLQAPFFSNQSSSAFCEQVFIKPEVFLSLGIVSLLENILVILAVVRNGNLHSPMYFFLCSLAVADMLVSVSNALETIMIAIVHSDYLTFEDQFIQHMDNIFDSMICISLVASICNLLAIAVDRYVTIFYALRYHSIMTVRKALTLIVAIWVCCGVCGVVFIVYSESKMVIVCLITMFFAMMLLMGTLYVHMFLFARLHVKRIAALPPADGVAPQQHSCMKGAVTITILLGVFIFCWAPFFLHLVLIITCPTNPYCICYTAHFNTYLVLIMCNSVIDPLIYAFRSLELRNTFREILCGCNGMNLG

B1: KR-008 (peptide)
peptide: Ac-[Nle][Lys(N3)]HFRW[Pra]-NH2
modifications: triazole 2-7
With B1, the “MC1R IC50” value in test [1] was found to be 0.4 nM. Moreover, the “MC3R IC50” value in test [2] was determined as 1110 nM. Also, the “MC4R IC50” value in test [3] is 74.5 nM. The “MC5R IC50” value in test [4] is greater than 10000 nM.

B2: KR-002 (peptide)
peptide: Ac-SMEHFRWGKPV-NH2
For B2, in test [1], the “MC1R IC50” value is 0.44 nM. Further, in test [2], the “MC3R IC50” value came out at 176 nM. For the same molecule, in test [3], the “MC4R IC50” value stood at 34.9 nM. In test [4], the “MC5R IC50” value is 243 nM.

B3: KR-010 (peptide)
peptide: Ac-[Lys(N3)]EHFRWG[Pra]-NH2
modifications: triazole 1-8
As for B3, the “MC1R IC50” value in test [1] turned out to be 170 nM. In test [2], the “MC3R IC50” value stood at 13600 nM. Also, in test [3], the “MC4R IC50” value is 452 nM. In addition, in test [4], the “MC5R IC50” value is greater than 10000 nM.

B4: KR-071 (peptide)
peptide: {Benzoyl(3,5-(OH)2)}-[Nle][Lys(N3)]H[dPhe(4-F)]RW[Pra][Hgln]-NH2
modifications: triazole 2-7; not fully specified; printed as HyBA-Nle-[Lys(N3)-His-Dphe(4-F)-Arg-Trp-Pra]-Hgln-NH2
Turning to B4, the “MC1R IC50” value in test [1] came to 0.0023 nM. For the same molecule, the “MC4R IC50” value in test [3] was determined as 103 nM. The “MC5R IC50” value in test [4] worked out at 73.9 nM. The “EC50(nM)-MC1R” value in test [5] came to 0.0023 nM. Besides, the “EC50(nM)-MC4R” value in test [6] came to 103 nM. Further, the “EC50(nM)-MC5R” value in test [7] came out at 73.9 nM.

B5: KR-017 (peptide)
peptide: {Octanoyl-PEG8′}-GGSYSMEHFRWGKPV-NH2
As to B5, in test [1], the “MC1R IC50” value was 0.77 nM. Further, the “MC3R IC50” value in test [2] came out at 310 nM. Further, the “MC4R IC50” value in test [3] was 139 nM. In addition, in test [4], the “MC5R IC50” value was determined as 210 nM.

B6: KR-009 (peptide)
peptide: Ac-[Nle][Lys(N3)]H[dF]RW[Pra]-NH2
modifications: bridge 2-7; not fully specified (bridges); printed as Ac-Nle-[Lys(N3)-His-DPhe-Arg-Trp-Pra]-NH2
Turning to B6, the “MC1R IC50” value in test [1] was determined as 0.0109 nM. In addition, in test [3], the “MC4R IC50” value was determined as 45.7 nM. Further, the “MC5R IC50” value in test [4] is 140 nM. In test [5], the “EC50(nM)-MC1R” value is 0.011 nM. In addition, in test [6], the “EC50(nM)-MC4R” value came out at 45.7 nM. In addition, the “EC50(nM)-MC5R” value in test [7] is 140 nM.

B7: KR-072 (peptide)
peptide: {Benzoyl(3,5-(OH)2)}-[Nle][Lys(N3)]H[dPhe(4-F)]RW[Pra]-NH2
modifications: triazole 2-7; not fully specified; printed as HyBA-Nle-[Lys(N3)-His-Dphe(4-F)-Arg-Trp-Pra]-NH2
Regarding B7, the “MC1R IC50” value in test [1] worked out at 0.0019 nM. The “MC4R IC50” value in test [3] was 98.6 nM. The “MC5R IC50” value in test [4] was 78 nM. Further, the “EC50(nM)-MC1R” value in test [5] was 0.0019 nM. Besides, the “EC50(nM)-MC4R” value in test [6] came out at 98.6 nM. The “EC50(nM)-MC5R” value in test [7] amounted to 78 nM.

B8: KR-049 (peptide)
peptide: Ac-[Nle][Lys(N3)]H[dPhe(4-F)]RW[Pra]-NH2
modifications: triazole 2-7
In the case of B8, the “MC1R IC50” value in test [1] stood at 0.019 nM. In addition, the “MC4R IC50” value in test [3] is 16.1 nM. In test [4], the “MC5R IC50” value came out at 25.2 nM. In addition, in test [5], the “EC50(nM)-MC1R” value came out at 0.019 nM. Further, the “EC50(nM)-MC4R” value in test [6] stood at 16.1 nM. In test [7], the “EC50(nM)-MC5R” value came out at 25.2 nM.

B9: KR-074 (peptide)
peptide: {Acetyl(4-pyridyl)}-[Nle][Lys(N3)]H[dF]RW[Pra]-NH2
modifications: triazole 2-7; not fully specified; printed as PyAA-Nle-[Lys(N3)-His-DPhe-Arg-Trp-Pra]-NH2
For the molecule B9, in test [1], the “MC1R IC50” value is 0.023 nM. The “MC3R IC50” value in test [2] is 165 nM. In addition, the “MC4R IC50” value in test [3] stood at 20.2 nM. In test [4], the “MC5R IC50” value was determined as 154 nM.

B10: KR-073 (peptide)
peptide: {Benzoyl(3,5-(OH)2)}-[Nle][Lys(N3)]H[dF]RW[Pra]-NH2
modifications: triazole 2-7; not fully specified; printed as HyBA-Nle-[Lys(N3)-His-DPhe-Arg-Trp-Pra]-NH2
Turning to B10, the “MC1R IC50” value in test [1] is 0.0041 nM. The “MC4R IC50” value in test [3] stood at 13.9 nM. The “MC5R IC50” value in test [4] was 134 nM. The “EC50(nM)-MC1R” value in test [5] was 0.0041 nM. Further, in test [6], the “EC50(nM)-MC4R” value was found to be 13.9 nM. The “EC50(nM)-MC5R” value in test [7] amounted to 134 nM.

B11: KR-015 (peptide)
peptide: Ac-[R8]EHFRWG[S5]-NH2
modifications: staple 1-8
SMILES: CC(=O)N[C@]1(C)CCCCCCC=CCCC[C@@](C)(C(N)=O)NC(=O)CNC(=O)[C@H](Cc2c[nH]c3ccccc23)NC(=O)[C@H](CCCNC(=N)N)NC(=O)[C@H](Cc2ccccc2)NC(=O)[C@H](Cc2c[nH]cn2)NC(=O)[C@H](CCC(=O)O)NC1=O
Consider B11, for which the “MC1R IC50” value in test [1] is 25.8 nM. Besides, the “MC3R IC50” value in test [2] was determined as 3000 nM. Also, in test [3], the “MC4R IC50” value was 485 nM. Besides, the “MC5R IC50” value in test [4] is greater than 10000 nM.
